From patent US6465220B1, “Glycosylation using GalNac-T4 transferase” (GlycoZym ApS, priority 1998, dated 2002)

Key:
[1] = system: T1, C[C@H](NC(=O)[C@H](C)NC(=O)[C@@H](NC(=O)[C@@H](NC(=O)[C@H](CCC(=O)O)NC(=O)[C@@H]1CCCN1C(=O)[C@@H]1CCCN1C(=O)[C@H](C)NC(=O)[C@H](CO)NC(=O)[C@H](CO)NC(=O)[C@H](CO)NC(=O)[C@@H]1CCCN1C(=O)[C@@H]1CCCN1C(=O)[C@H](C)NC(=O)[C@@H]1CCCN1C(=O)[C@@H](NC(=O)[C@@H](NC(=O)[C@H](C)NC(=O)[C@H](CO)NC(=O)[C@@H]1CCCN1C(=O)[C@@H](NC(=O)[C@@H]1CCCN1C(=O)[C@@H]1CCCN1C(=O)[C@@H](N)CS)[C@@H](C)O)[C@@H](C)O)[C@@H](C)O)[C@@H](C)O)[C@@H](C)O)C(=O)O; assay: GalNAc-transferase assay with purified recombinant GalNAc-T2; assay type: biochemical, human; details: other: acceptor substrate; pH 7.5
T1 construct: Control constructs pAcGP67-GalNAc-T1-sol, pAcGP67-GalNAc-T2-sol, pAcGP67-GalNAc-T3-sol, and pAcGP67-O^2-sol were prepared as previously described; made in house; host or cells: insect cells (baculovirus, pAcGP67)
Description: The following examples are provided to illustrate certain preferred embodiments of the invention, and should be considered as illustration and not as limitation. In the examples, GalNAc-transferase assays were performed in 50 μl total reaction mixtures containing 25 mM cacodylate (pH 7.5), 10 mM MnCl2, 0.1-0.25% Triton X-100, 150-200 μM UDP-[^14C]-GalNAc (4,000 cpm/nmole) (Amersham) and 0.06-1 mM acceptor peptides. Peptides were either synthesized or obtained from Carlbiotech (Copenhagen), or Neosystems (Strasbourg), and quality was ascertained by amino acid analysis and mass spectrometry. […] Products were quantified by scintillation counting after chromatography on Dowex-1, octadecyl silica cartridges (Bakerbond), or HPLC (PC3.2/3 or mRPC C2/C18 SC2.1/10 Pharmacia, Smart System). […]
Activities measured with the mucin derived substrates, Muc7, EA2, and Muc2 (see Table I for structures and SEQ ID NOs:19, 25 and 18, respectively), were only 2-7 fold over background values. […] GalNAc-T4 was expressed in High Five cells and purified to near homogeneity, however, very low endogenous activity was detected with some substrates in the same fractions when medium from cells infected with irrelevant expression constructs were used in the same purification strategy. […]

[2] = system: T2, C[C@H](NC(=O)[C@H](C)NC(=O)[C@@H](NC(=O)[C@@H](NC(=O)[C@H](CCC(=O)O)NC(=O)[C@@H]1CCCN1C(=O)[C@@H]1CCCN1C(=O)[C@H](C)NC(=O)[C@H](CO)NC(=O)[C@H](CO)NC(=O)[C@H](CO)NC(=O)[C@@H]1CCCN1C(=O)[C@@H]1CCCN1C(=O)[C@H](C)NC(=O)[C@@H]1CCCN1C(=O)[C@@H](NC(=O)[C@@H](NC(=O)[C@H](C)NC(=O)[C@H](CO)NC(=O)[C@@H]1CCCN1C(=O)[C@@H](NC(=O)[C@@H]1CCCN1C(=O)[C@@H]1CCCN1C(=O)[C@@H](N)CS)[C@@H](C)O)[C@@H](C)O)[C@@H](C)O)[C@@H](C)O)[C@@H](C)O)C(=O)O; assay: GalNAc-transferase assay with purified recombinant GalNAc-T4; assay type: biochemical, human; details: other: acceptor substrate; pH 7.5
T2 construct: made in house; host or cells: High Five insect cells (baculovirus, pAcGP67 vector)
Description: In the examples, GalNAc-transferase assays were performed in 50 μl total reaction mixtures containing 25 mM cacodylate (pH 7.5), 10 mM MnCl2, 0.1-0.25% Triton X-100, 150-200 μM UDP-[^14C]-GalNAc (4,000 cpm/nmole) (Amersham) and 0.06-1 mM acceptor peptides. […] Products were quantified by scintillation counting after chromatography on Dowex-1, octadecyl silica cartridges (Bakerbond), or HPLC (PC3.2/3 or mRPC C2/C18 SC2.1/10 Pharmacia, Smart System).

Chain of GalNAc-T4 (Homo sapiens) (chain, as listed by the source): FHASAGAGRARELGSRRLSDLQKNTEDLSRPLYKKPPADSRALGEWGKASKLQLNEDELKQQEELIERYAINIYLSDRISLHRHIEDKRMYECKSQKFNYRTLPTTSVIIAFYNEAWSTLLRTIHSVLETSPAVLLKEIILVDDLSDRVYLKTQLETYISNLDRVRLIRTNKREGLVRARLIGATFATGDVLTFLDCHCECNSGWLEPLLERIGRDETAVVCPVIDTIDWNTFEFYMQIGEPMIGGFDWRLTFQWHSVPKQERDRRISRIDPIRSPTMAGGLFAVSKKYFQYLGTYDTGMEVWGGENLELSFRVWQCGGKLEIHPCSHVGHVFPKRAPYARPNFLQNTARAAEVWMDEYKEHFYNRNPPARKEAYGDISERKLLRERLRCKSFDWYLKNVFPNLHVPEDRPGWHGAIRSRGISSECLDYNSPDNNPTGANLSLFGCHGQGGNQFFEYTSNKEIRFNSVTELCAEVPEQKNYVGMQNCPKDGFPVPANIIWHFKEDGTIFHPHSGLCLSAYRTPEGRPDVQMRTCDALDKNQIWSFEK
Chain of GalNAc-T2 (Homo sapiens) (chain, as listed by the source): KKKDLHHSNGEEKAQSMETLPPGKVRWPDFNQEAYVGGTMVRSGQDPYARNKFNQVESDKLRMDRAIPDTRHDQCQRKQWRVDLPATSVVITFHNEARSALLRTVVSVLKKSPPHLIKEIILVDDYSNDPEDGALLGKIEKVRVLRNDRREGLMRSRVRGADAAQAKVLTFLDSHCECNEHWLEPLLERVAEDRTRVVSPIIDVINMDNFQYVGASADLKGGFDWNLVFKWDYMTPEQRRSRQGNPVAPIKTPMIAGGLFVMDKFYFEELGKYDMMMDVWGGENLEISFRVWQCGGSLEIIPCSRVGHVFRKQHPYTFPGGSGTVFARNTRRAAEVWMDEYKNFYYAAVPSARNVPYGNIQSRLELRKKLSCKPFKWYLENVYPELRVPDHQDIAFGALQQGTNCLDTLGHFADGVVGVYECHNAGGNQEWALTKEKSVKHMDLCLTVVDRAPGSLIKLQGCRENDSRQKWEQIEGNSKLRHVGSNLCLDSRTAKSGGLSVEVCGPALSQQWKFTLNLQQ

GalNAc-T2 (Homo sapiens)
Km [1]: 0.015 mM | Vmax [1]: 0.64 nmol/min/µg

GalNAc-T4 (Homo sapiens)
Km [2]: 0.48 mM | Vmax [2]: 0.25 nmol/min/µg
